# Laboratory results taken from the supplement of paper PMC9112550, “Optimization of the antimicrobial peptide Bac7 by deep mutational scanning” (BMC Biology, 2022).
# Test system: Escherichia coli TOP10
# Assay: shrunken log2 fold change of peptide-encoding DNA abundance (4.5 h post-induction vs induction); higher = less antimicrobial activity (less host growth inhibition)
# Details: time post-induction: 4.5 h; library: site-saturation at positions 5, 18, 19, 20
# 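Note: peptides expressed intracellularly from a pBAD plasmid library in pooled LB shake-flask culture, induced with 0.3% L-arabinose, DNA abundance read by NGS, three biological replicates, DESeq2 with apeglm shrinkage.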
row,Sequence,shrunken log2 fold change
1,RRIRGRPPRLPRPRPRPHWRPRP,0.203
2,RRIRDRPPRLPRPRPRPMYKPRP,-0.363
3,RRIRERPPRLPRPRPRPKRKPRP,0.25
4,RRIRIRPPRLPRPRPRPGGEPRP,-0.063
5,RRIRMRPPRLPRPRPRPFNWPRP,-0.0926
6,RRIRARPPRLPRPRPRPIPVPRP,0.161
7,RRIRERPPRLPRPRPRPMLLPRP,-0.166
8,RRIRPRPPRLPRPRPRPERGPRP,0.575
9,RRIRVRPPRLPRPRPRPCWWPRP,0.297
10,RRIRGRPPRLPRPRPRPLMNPRP,0.303
11,RRIRWRPPRLPRPRPRPDIKPRP,-0.323
12,RRIRDRPPRLPRPRPRPERCPRP,0.426
13,RRIRWRPPRLPRPRPRPCKCPRP,-0.0392
14,RRIRWRPPRLPRPRPRPKWPPRP,0.477
15,RRIRNRPPRLPRPRPRPTHMPRP,0.0687
16,RRIRQRPPRLPRPRPRPILDPRP,0.0277
17,RRIRQRPPRLPRPRPRPYIWPRP,-0.0658
18,RRIRARPPRLPRPRPRPKPRPRP,1.9
19,RRIRSRPPRLPRPRPRPLHPPRP,0.578
20,RRIRIRPPRLPRPRPRPFPSPRP,-0.953

row,Sequence,shrunken log2 fold change
1,RRIRQRPPRLPRPRPRPFMQPRP,-0.259
2,RRIRGRPPRLPRPRPRPWYLPRP,-0.575
3,RRIRCRPPRLPRPRPRPWMAPRP,-0.333
4,RRIRARPPRLPRPRPRPREPPRP,0.199
5,RRIRMRPPRLPRPRPRPFWNPRP,-0.266
6,RRIRSRPPRLPRPRPRPSFAPRP,0.0497
7,RRIRTRPPRLPRPRPRPAHFPRP,0.13
8,RRIRHRPPRLPRPRPRPWMDPRP,0.113
9,RRIRRRPPRLPRPRPRPPGVPRP,0.704
10,RRIRFRPPRLPRPRPRPTGQPRP,0.0488
11,RRIRRRPPRLPRPRPRPQPAPRP,0.387
12,RRIRARPPRLPRPRPRPCERPRP,-0.00198
13,RRIRLRPPRLPRPRPRPRYRPRP,-0.374
14,RRIRNRPPRLPRPRPRPSGHPRP,-0.141
15,RRIRRRPPRLPRPRPRPWWHPRP,0.0484
16,RRIRPRPPRLPRPRPRPYVAPRP,-0.465
17,RRIRARPPRLPRPRPRPHPRPRP,0.696
18,RRIRIRPPRLPRPRPRPWGDPRP,-0.38
19,RRIRCRPPRLPRPRPRPHHQPRP,-0.278
20,RRIRIRPPRLPRPRPRPACQPRP,0.0224

row,Sequence,shrunken log2 fold change
1,RRIRFRPPRLPRPRPRPTPYPRP,0.0647
2,RRIRERPPRLPRPRPRPQFEPRP,-0.0369
3,RRIRIRPPRLPRPRPRPNKEPRP,-0.131
4,RRIRDRPPRLPRPRPRPEQMPRP,0.861
5,RRIRYRPPRLPRPRPRPQAPPRP,-0.0309
6,RRIRSRPPRLPRPRPRPKWFPRP,-0.0561
7,RRIRHRPPRLPRPRPRPYTPPRP,-1.32
8,RRIRCRPPRLPRPRPRPEYMPRP,0.0436
9,RRIRERPPRLPRPRPRPYYMPRP,-0.785
10,RRIRARPPRLPRPRPRPIDEPRP,0.379
11,RRIRPRPPRLPRPRPRPMMSPRP,0.081
12,RRIRYRPPRLPRPRPRPEMLPRP,-0.0664
13,RRIRYRPPRLPRPRPRPVTAPRP,-0.298
14,RRIRTRPPRLPRPRPRPEKVPRP,-0.292
15,RRIRPRPPRLPRPRPRPPGVPRP,0.517
16,RRIRQRPPRLPRPRPRPLEAPRP,0.225
17,RRIRTRPPRLPRPRPRPIEQPRP,-0.00141
18,RRIRMRPPRLPRPRPRPHEVPRP,0.16
19,RRIRKRPPRLPRPRPRPLWVPRP,0.0688
20,RRIRCRPPRLPRPRPRPNTMPRP,-0.682
